Measurements taken from PMC7870846, “Incorporation of sensing modalities into de novo designed fluorescence-activating proteins” (Nature Communications, 2021).

Key:
[1] = Photophysical characterization: absorbance, excitation/emission spectra, extinction coefficients, quantum yields; assay type: physicochemical
Experimental: Protein preparation: mFAP2a, mFAP2b, and mFAP10 were produced by large-scale protein purification and SEC purification, and dialyzed overnight into DPBS that was adjusted to pH 7.40 using NaOH.
Chromophore preparation: DFHBI (Lucerna) and DFHBI-1T (Lucerna) were dissolved to 20.0 mM in 100% DMSO, and diluted in DPBS (pH 7.40) to measure absorbances on a Jasco V-750 spectrophotometer at peak absorbance wavelengths (417 nm for DFHBI and 422 nm for DFHBI-1T). Following background subtraction of identical buffer without chromophore, Beer’s Law was used to calculate the molar chromophore concentrations of the stock solutions using previously reported extinction coefficients.
Preparation of protein–chromophore complexes: For quantum yield measurements, 1.00 μM, 836 nM, or 919 nM chromophore solutions in DPBS (pH 7.40) at 4.00 mL final volumes were prepared for the following eight conditions: DFHBI only, DFHBI-1T only, 43.5 µM 6xHis-mFAP10 with DFHBI, 43.5 µM 6xHis-mFAP10 with DFHBI-1T, 134 μM 6xHis-mFAP2a with DFHBI, 134 μM 6xHis-mFAP2a with DFHBI-1T, 206 μM 6xHis-mFAP2b with DFHBI, and 206 μM 6xHis-mFAP2b with DFHBI-1T.
Extinction coefficients: Absorbance spectra of protein–chromophore complexes were first measured with a Thermo Scientific BioMate 3S UV–Vis Spectrophotometer (1 nm interval, 800 nm min^−1). The extinction coefficients were then calculated using Beer’s Law:12 A=ε⋅b⋅c, where A is peak absorbance, ε is extinction coefficient, b is path length (1 cm), and c is concentration (1.00 μM, 836 nM, or 919 nM).
Relative quantum yield: A Perkin-Elmer LS-B Luminescence Spectrophotometer (10 nm bandwidth, 1 nm interval, 100 nm min^−1) was used. The fluorescence emission spectra of the protein–chromophore complexes (in DPBS, pH 7.40) and reference dye Acridine Yellow G (in methanol) were first obtained, and the quantum yield was then calculated using the equation[53]:13 ϕc=ϕr⋅1−10^−Ar(λex)/1−10^−Ac(λex)⋅∫Fc(λ)⋅dλ/∫Fr(λ)⋅dλ⋅nc2/nr2, where ϕ is quantum yield, A(λex) is absorbance at the excitation wavelength λex ( λex = 440 nm), F is fluorescence emission, n is refractive index of the solution (1.3350 for DPBS at pH 7.40 and 1.3284 for methanol), and the subscripts “c” and “r” refer to the protein–chromophore complex measured and the reference dye, respectively. […]
Absolute quantum yield: An integrating sphere instrument (Hamamatsu C9920-12) (6 nm excitation bandwidth, 1 nm interval) and a high-sensitivity photonic multi-channel analyzer (Hamamatsu C10027-01) were used to measure a light emission spectrum. Absolute quantum yields were measured for solutions of protein–chromophore complexes in DPBS (pH 7.40) in which ≥95% of the total chromophore was occupying the protein-binding pocket (Table 1). […]

[2] = Ca2+-responsive mFAP Ca2+ titrations; assay type: binding; details: Ca2+ titration with excess DFHBI
Outline: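 Purified protein at 500 nM with 5.00 μM DFHBI titrated over eleven 10-fold CaCl2 dilutions plus a no-Ca2+ condition in high-salt Tev cleavage buffer; endpoint fluorescence at ex 484/em 508 nm, protein-free background subtracted. Triplicate means fit to a single-site isotherm, Hill coefficient 1, for Kd.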

Ca2+-responsiveness / allostery between DFHBI and Ca2+ binding [2]: lack of Ca^2+-responsiveness
B1: mFAP2b: mFAP2.5 with V67I, "b" for bright (protein)
chain: SRAAQLLPGTWQVTMTNEDGQTSQGQWHFQPRSPYTMDIVAQGTISDGRPIVGYGKATVKTPDTLDIDITYPSLGNIKAQGQITMDSPTQFKWDATTKGENDFHGRLTGTLQRQE
brighter fluorescence with DFHBI than DFHBI-1T [1]: ~ 30 fold
